Measurements taken from paper PMC6648325.
Several values for one entry are separate records, joined by “and”; a condition that tells them apart may be missing. Equal values may be shown once.

Experiments:
Conditions in all cases: remark: other sources report otherwise
[1] = molecular target: T1, Cys106-oxidized DJ-1 recombinant protein (human), Q99497; experiment: high-speed atomic force microscopy
T1 chain: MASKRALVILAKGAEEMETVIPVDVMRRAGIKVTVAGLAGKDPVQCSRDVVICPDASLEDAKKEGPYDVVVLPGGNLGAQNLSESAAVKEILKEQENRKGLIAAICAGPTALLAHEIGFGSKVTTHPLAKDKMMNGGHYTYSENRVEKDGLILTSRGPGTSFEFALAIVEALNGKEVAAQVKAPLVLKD

[2] = molecular target: T1, Cys106-oxidized DJ-1 recombinant …; experiment: SDS-PAGE of HMW bands
[3] = molecular target: T1, Cys106-oxidized DJ-1 recombinant …; experiment: SEC
[4] = molecular target: T2, DJ-1 recombinant protein (human), Q99497; experiment: high-speed atomic force microscopy
T2 chain: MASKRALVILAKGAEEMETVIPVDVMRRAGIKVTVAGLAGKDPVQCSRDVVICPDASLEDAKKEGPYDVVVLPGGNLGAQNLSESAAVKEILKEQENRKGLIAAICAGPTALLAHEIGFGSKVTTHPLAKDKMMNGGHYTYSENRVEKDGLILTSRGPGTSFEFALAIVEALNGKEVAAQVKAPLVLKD

[5] = molecular target: T2, DJ-1 recombinant protein (human), Q99497; experiment: SEC

B1: Cys106-oxidized DJ-1 recombinant protein, Q99497 1-189 (natural protein)
chain: MASKRALVILAKGAEEMETVIPVDVMRRAGIKVTVAGLAGKDPVQCSRDVVICPDASLEDAKKEGPYDVVVLPGGNLGAQNLSESAAVKEILKEQENRKGLIAAICAGPTALLAHEIGFGSKVTTHPLAKDKMMNGGHYTYSENRVEKDGLILTSRGPGTSFEFALAIVEALNGKEVAAQVKAPLVLKD
For B1, the stoichiometry N [1] was 4 and 6, the stoichiometry N [2] was 2 and 4 and the stoichiometry N [3] was 2.

B2: DJ-1 recombinant protein, Q99497 1-189 (natural protein)
chain: MASKRALVILAKGAEEMETVIPVDVMRRAGIKVTVAGLAGKDPVQCSRDVVICPDASLEDAKKEGPYDVVVLPGGNLGAQNLSESAAVKEILKEQENRKGLIAAICAGPTALLAHEIGFGSKVTTHPLAKDKMMNGGHYTYSENRVEKDGLILTSRGPGTSFEFALAIVEALNGKEVAAQVKAPLVLKD
Binder B2 has a stoichiometry N [4] of 2 and a stoichiometry N [5] of 2.
